# Measured values from patent US20230203178A1 (SICHUAN KELUN BIOTECH BIOPHARMACEUTICAL, published 2023).
# B1: humanized anti-CD19 antibody (H-CD19) (antibody, V domains shown)
# VH: QVTLRESGPALVKPTQTLTLTCTFSGVSLPDYGVSWIRQPPGKALEWLAVIWGSETTYYNSALKSRLTISKDTSKNQVVLTMTNMDPVDTATYYCAKHYYYGGSYAMDYWGQGTTVTVSS
# VL: EIVLTQSPATLSLSPGERATLSCRASQDISKYLNWYQQKPGQAPRLLIYHTSRLHSGIPDRFSGSGSGTDFTLTISRLEPEDIAVYYCQQGNTLPYTFGQGTKLEI
# notes: also called humanized monoclonal antibody
# Biological target: T1, human CD19 (antigen) (human, UniProt P15391 20-291, limits assumed)
# T1 sequence (looked up): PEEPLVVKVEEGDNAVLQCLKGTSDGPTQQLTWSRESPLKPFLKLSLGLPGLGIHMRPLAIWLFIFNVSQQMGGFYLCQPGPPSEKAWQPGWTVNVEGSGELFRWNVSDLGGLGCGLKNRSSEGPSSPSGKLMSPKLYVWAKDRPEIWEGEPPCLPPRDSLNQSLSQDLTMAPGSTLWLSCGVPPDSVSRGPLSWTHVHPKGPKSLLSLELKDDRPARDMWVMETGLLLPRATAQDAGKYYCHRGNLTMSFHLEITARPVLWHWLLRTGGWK
# Assay: affinity determination, method not stated; humanized monoclonal antibody
binder,measurement,value
B1,Kd,28.4 nM
